In the RNAGym collection of RNA variant scans (doi:10.7554/elife.80360) one finds self-cleavage data, which are given here for 167 variants.

The labels stand for the following.
B1: CPEB3 Ribozyme (parent)
chain: GGGGGCCACAGCAGAAGCGUUCACGUCGCGGCCCCUGUCAGAUUCUGGUGAAUCUGCGAAUUCUGCUGU

The variants in the data set derive from B1. Kind of data set: self-cleavage, relative activity (ratio to wild type); higher = more cleavage; co-transcriptional.
As for C18U U53A, the self-cleavage is 0.632. Take C18U U53G: the self-cleavage turned out to be 0.633. The result for C18U U49C reads 0.864; that for C18U U49A, 0.914.

On to C18G C39U, for which the self-cleavage turned out to be 0.196. The value for C18G C39G was 0.101; that for C18G C39A was 0.184; that for U20A U62C was 0.148.

On to U20A U62G, for which the self-cleavage worked out at 0.0797. The result for C18A U53A reads 0.188. For C18A U53G, the self-cleavage stood at 0.17. As for U20C A23G, the self-cleavage is 0.238. The result for C18G U46G reads 0.226; that for C18U G19A, 0.144; that for G19C A59C, 0.0891. The value for G19C A59U was 0.185; that for U20A C39G was 0.251; that for G19U G58C was 0.443. The value for C18G G25A was 0.174; that for G19A U69G was 0.249; that for G19A U69C was 0.333.

On to C18A G48A, for which the self-cleavage worked out at 0.227. Take C18A G48C: the self-cleavage is 0.146. The value for C18A G25A was 0.163; that for G19U U55G was 0.127. As to G19U U55A, the self-cleavage came out at 0.209. With U20A G58C, the self-cleavage stood at 0.164.

C18U G30A: the self-cleavage was determined as 0.282.

For the variant G19C U38A, the self-cleavage is 0.218. Regarding G19C U38C, the self-cleavage was 0.135. Consider C18G U55G, for which the self-cleavage was determined as 0.175. Turning to C18U C33A, the self-cleavage amounted to 0.278.

On to C18U C33G, for which the self-cleavage amounted to 0.304.

In the case of C18A G58C, the self-cleavage was determined as 0.193. For G19C C24A, the self-cleavage is 0.183.

With G19C C24G, the self-cleavage came to 0.135.

On to G19C C24U, for which the self-cleavage is 0.204. In the case of G19C U64G, the self-cleavage stood at 0.139. The value for G19C U64A was 0.176; that for U20A U38C was 0.107.

For U20A U38A, the self-cleavage was determined as 0.188. For C18G G68U, the self-cleavage amounted to 0.311. Take C18G A51G: the self-cleavage turned out to be 0.184. On to C18G A51U, for which the self-cleavage came to 0.207.

Turning to C18G G47C, the self-cleavage came out at 0.0572.

C18G G47U: the self-cleavage stood at 0.177.

Regarding G19C A42U, the self-cleavage was 0.173.

As to G19C A42C, the self-cleavage came to 0.153. The value for G19C A42G was 0.11. As for G19C U21G, the self-cleavage is 0.161.

Turning to U20A U69A, the self-cleavage worked out at 0.181.

Regarding G19A U46A, the self-cleavage was 0.155. Regarding U20A G50A, the self-cleavage worked out at 0.147. The result for C18A U69C reads 0.517; that for C18U G37U, 0.198; that for C18U G56C, 0.341.

For the variant C18U G56U, the self-cleavage turned out to be 0.578. The result for G19C G56U reads 0.123; that for G19A G31A, 0.17; that for G19C G47A, 0.169. The result for G19A A51G reads 0.172; that for G19A A51C, 0.161; that for G19C G41U, 0.129. Regarding G19A C63U, the self-cleavage came out at 0.116.

As to G19A G37A, the self-cleavage was determined as 0.142. As to G19A G37C, the self-cleavage is 0.128. The result for C18G C29G reads 0.187.

C18U C22A: the self-cleavage amounted to 0.0833.

G19U C27U: the self-cleavage was determined as 0.158. The value for G19U U21A was 0.31. Turning to G19U U21G, the self-cleavage was 0.159. The value for C18G C35A was 0.0628; that for U20C A42U was 0.271; that for U20C A42C was 0.199. The result for C18U U64A reads 0.351; that for C18U U64C, 0.383; that for C18A C57G, 0.114. Consider C18A C57U, for which the self-cleavage amounted to 0.157. As to C18U G48A, the self-cleavage was 0.948. The value for G19A U64G was 0.12; that for G19A U64A was 0.104; that for G19U G48A was 0.673. For the variant G19U G48C, the self-cleavage was found to be 0.699.

For the variant U20A G41A, the self-cleavage is 0.166.

With U20A G41U, the self-cleavage turned out to be 0.126.

G19U C24U: the self-cleavage turned out to be 0.169. The result for G19U C24A reads 0.153. As to C18G C24G, the self-cleavage came to 0.107.

Turning to C18G C24U, the self-cleavage turned out to be 0.106. The result for C18U U36G reads 0.19. With C18G G58A, the self-cleavage stood at 0.104. The result for C18G U44G reads 0.169; that for C18G U44C, 0.125; that for C18A G19A, 0.135. For the variant U20A C45G, the self-cleavage is 0.149.

U20A C45A: the self-cleavage was found to be 0.142.

With U20A C27A, the self-cleavage amounted to 0.151. On to C18A U43C, for which the self-cleavage was determined as 0.161. The result for G19C U69A reads 0.147. On to U20A U67A, for which the self-cleavage came to 0.12.

As to C18U U43A, the self-cleavage came out at 0.549. Turning to G19U A60C, the self-cleavage was 0.18. For C18A U62A, the self-cleavage is 0.133.

C18A U62C: the self-cleavage turned out to be 0.141. Consider C18A U62G, for which the self-cleavage is 0.152. The value for G19A C54G was 0.159; that for G19U G30C was 0.186; that for U20C A40U was 0.227. Turning to U20C A40C, the self-cleavage is 0.215.

For G19A U53G, the self-cleavage was 0.18.

On to G19A U53C, for which the self-cleavage was 0.15. Consider G19C U67C, for which the self-cleavage stood at 0.203. The value for C18G G28A was 0.133; that for G19A C33G was 0.172. On to C18G G65U, for which the self-cleavage was 0.161. The result for U20A C63U reads 0.16. The value for C18A G65C was 0.217; that for U20A A40U was 0.0825. The result for U20A A40C reads 0.188; that for C18A G68U, 0.264. With C18A C63A, the self-cleavage came to 0.119.

G19C C39G: the self-cleavage was found to be 0.162. The value for G19C C39U was 0.158. The value for C18U C66G was 0.341.

In the case of C18U G65U, the self-cleavage amounted to 0.245. Turning to G19A G50U, the self-cleavage came to 0.133. The result for U20A U36A reads 0.158. For G19C C35U, the self-cleavage is 0.163. The result for G19A C32U reads 0.216; that for G19A C32G, 0.153.

As to C18G C27U, the self-cleavage was found to be 0.0906. On to C18G U20A, for which the self-cleavage came to 0.0787. As to G19C A40C, the self-cleavage was found to be 0.0886. The value for C18U A51C was 0.771. As to G19C G25U, the self-cleavage stood at 0.145. G19C G25A: the self-cleavage was 0.101.

For C18U C29G, the self-cleavage came to 0.132. The result for G19A U67A reads 0.147; that for G19C C63A, 0.144.

G19C C63U: the self-cleavage was determined as 0.135.

As for G19C C63G, the self-cleavage is 0.204. The value for G19A G58A was 0.132. Regarding G19C G58A, the self-cleavage turned out to be 0.162.

With C18A U49C, the self-cleavage was found to be 0.195.

Turning to C18A U49A, the self-cleavage is 0.16. The result for G19C U61A reads 0.216; that for G19U A23G, 0.262. Regarding C18A C54A, the self-cleavage turned out to be 0.162. The value for G19C G50C was 0.148; that for G19U C66U was 0.382.

For C18U G41A, the self-cleavage was found to be 0.331. The result for C18U G41U reads 0.44. As to C18U G41C, the self-cleavage is 0.211. With G19C U44C, the self-cleavage is 0.164. As to G19C U43G, the self-cleavage was found to be 0.122. As to G19C U43C, the self-cleavage turned out to be 0.134. Consider C18A C66G, for which the self-cleavage is 0.147. The value for C18A C66A was 0.13; that for C18A C66U was 0.153; that for C18A G41A was 0.156. Consider G19A U62C, for which the self-cleavage is 0.231. The value for C18G G19C was 0.0934.

For G19A A60G, the self-cleavage came to 0.161. Regarding U20A G65A, the self-cleavage came to 0.156.

As for G19U U20G, the self-cleavage came out at 0.139. Regarding U20A C35U, the self-cleavage stood at 0.124.

For U20A A59U, the self-cleavage is 0.106.
